Laboratory results published in patent publication US6808893 (Johns Hopkins, dated 2004).

T1: EAAT4, full-length glutamate transporter (rat, UniProt O35921 1-561)
T1 sequence (looked up): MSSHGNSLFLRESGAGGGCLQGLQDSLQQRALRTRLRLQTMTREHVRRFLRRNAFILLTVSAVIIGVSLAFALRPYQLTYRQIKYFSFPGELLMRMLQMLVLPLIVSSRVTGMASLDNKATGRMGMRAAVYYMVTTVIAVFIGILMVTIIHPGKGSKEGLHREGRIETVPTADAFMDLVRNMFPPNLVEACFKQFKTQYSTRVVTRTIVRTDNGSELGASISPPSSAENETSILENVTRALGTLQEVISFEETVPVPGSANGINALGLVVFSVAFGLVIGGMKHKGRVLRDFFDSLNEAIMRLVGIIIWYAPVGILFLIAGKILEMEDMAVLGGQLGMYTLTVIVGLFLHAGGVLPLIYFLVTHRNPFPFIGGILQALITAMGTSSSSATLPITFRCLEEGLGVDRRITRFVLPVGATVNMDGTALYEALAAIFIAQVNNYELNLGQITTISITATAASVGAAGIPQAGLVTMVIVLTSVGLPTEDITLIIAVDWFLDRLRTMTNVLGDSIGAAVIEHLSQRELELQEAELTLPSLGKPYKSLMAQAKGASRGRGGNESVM

B1: GTRAP4-48 (glutamate transporter 4 associated protein), full-length (other)
chain: MSIRLPHSIDRSASKKQSHLSSPIASWLSSLSSLGDSTPERTSPSHHRQPSDTSETTAGLVQRCVIIQKDQHGFGFTVSGDRIVLVQSVRPGGAAMKAGVKEGDRIIKVNGTMVTNSSHLEVVKLIKSGAYAALTLLGSSPPSVGVSGLQQNPSVAGVLRVNPIIPPPPPPPPLPPPQHITGPKPLQDPEVQKHATQILWNMLRQEEEELQDILPPCGETSQRTCEGRLSVDSQEADSGLDSGTERFPSISESLMNRNSVLSDPGLDSPQTSPVILARVAQHHRRQGSDAALLPLNHQGIDQSPKPLIIGPEEDYDPGYFNNESDIIFQDLEKLKSHPAYLVVFLRYILSQADPGPLLFYLCSEVYQQTNPKDSRSLGKDIWNIFLEKNAPLRVKIPEMLQAEIDLRLRNNEDPRNVLCEAQEAVMLEIQEQINDYRSKRTLGLGSLYGENDLLGLDGDPLRERQMAEKQLAALGDILSKYEEDRSAPMDFAVNTFMSHAGIRLRESRSSCTAEKTQSAPDKDKWLPFFPKTKKQSSNSKKEKDALEDKKRNPILRYIGKPKSSSQSIKPGNVRNIIQHFENSHQYDVPEPGTQRLSTGSFPEDLLESDSSRSEIRLGRSGSLKGREEMKRSRKAENVPRPRSDVDMDAAAEAARLHQSASSSASSLSTRSLENPTPPFTPKMGRRSIESPNLGFCTDVILPHLLEDDLGQLSDLEPEPEVQNWQHTVGKDVVANLTQREIDRQEVINELFVTEASHLRTLRVLDLIFYQRMRKENLMPREELARLFPNLPELIEIHNSWCEAMKKLREEGPIIRDISDPMLARFDGPAREELQQVAAQFCSYQSVALELIRTKQRKESRFQLFMQEAESHPQCRRLQLRDLIVSEMQRLTKYPLLLENIIKHTEGGTSEHEKLCRARDQCREILKFVNEAVKQTENRHRLEGYQKRLDATALERASNPLAAEFKSLDLTTRKMIHEGPLTWRISKDKTLDLQVLLLEDLVVLLQRQEERLLLKCHSKTAVGSSDSKQTFSPVLKLNAVLIRSVATDKRAFFIICTSELGPPQIYELVALTSSDKNIWMELLEEAVQNATKHPGAAPIPIHPSPPGSQEPAYQGSTSSRVEINDSEVYHTEKEPKKLPEGPGPEQRVQDKQLIAQGEPVQEEDEEELRTLPRAPPSLDGENRGIRTRDPVLLALTGPLLMEGLADAALEDVENLRHLILWSLLPGHTVKTQAAGEPEDDLTPTPSVVSITSHPWDPGSPGQAPTISDSTRLARPEGSQPEGEDVAVSSLAHLPPRTRSSGVWDSPELDRNPAAEAASTEPAASYKVVRKVSLLPGGGVGAAKVAGSNAIPDSGQSESELSEVEGGAQATGNCFYVSMPAGPLDSSTEPTGTPPSPSQCHSLPAWPTEPQPYRGVRGGQCSSLVRRDVDVIFHTIEQLTIKLHRLKDMELAHRELLKSLGGESSGGTTPVGSFHTEAARWTDYSLSPPAKEALASDSQNGQEQGSCPEEGSDIALEDSATDTAVSPGP
notes: also called GTRAP48

Experiments:
[1] = target: T1, EAAT4, full-length glutamate transporter; assay: cell-based or functional assay
[2] = target: T2, GTRAP4-41 (glutamate transporter 4 associated protein), full-length (rat, UniProt Q9QWN8 2-2388); assay: co-immunoprecipitation from solubilized rat brain
T2 construct: Used for native GTRAP4-41 of rat brain and for full-length GTRAP4-41 expressed where no tag is stated (transfected HEK cells, HSV amplicon); also called GTRAP41
T2 sequence (Q9QWN8 other isoform, or with tags, fused parts or gaps limits assumed): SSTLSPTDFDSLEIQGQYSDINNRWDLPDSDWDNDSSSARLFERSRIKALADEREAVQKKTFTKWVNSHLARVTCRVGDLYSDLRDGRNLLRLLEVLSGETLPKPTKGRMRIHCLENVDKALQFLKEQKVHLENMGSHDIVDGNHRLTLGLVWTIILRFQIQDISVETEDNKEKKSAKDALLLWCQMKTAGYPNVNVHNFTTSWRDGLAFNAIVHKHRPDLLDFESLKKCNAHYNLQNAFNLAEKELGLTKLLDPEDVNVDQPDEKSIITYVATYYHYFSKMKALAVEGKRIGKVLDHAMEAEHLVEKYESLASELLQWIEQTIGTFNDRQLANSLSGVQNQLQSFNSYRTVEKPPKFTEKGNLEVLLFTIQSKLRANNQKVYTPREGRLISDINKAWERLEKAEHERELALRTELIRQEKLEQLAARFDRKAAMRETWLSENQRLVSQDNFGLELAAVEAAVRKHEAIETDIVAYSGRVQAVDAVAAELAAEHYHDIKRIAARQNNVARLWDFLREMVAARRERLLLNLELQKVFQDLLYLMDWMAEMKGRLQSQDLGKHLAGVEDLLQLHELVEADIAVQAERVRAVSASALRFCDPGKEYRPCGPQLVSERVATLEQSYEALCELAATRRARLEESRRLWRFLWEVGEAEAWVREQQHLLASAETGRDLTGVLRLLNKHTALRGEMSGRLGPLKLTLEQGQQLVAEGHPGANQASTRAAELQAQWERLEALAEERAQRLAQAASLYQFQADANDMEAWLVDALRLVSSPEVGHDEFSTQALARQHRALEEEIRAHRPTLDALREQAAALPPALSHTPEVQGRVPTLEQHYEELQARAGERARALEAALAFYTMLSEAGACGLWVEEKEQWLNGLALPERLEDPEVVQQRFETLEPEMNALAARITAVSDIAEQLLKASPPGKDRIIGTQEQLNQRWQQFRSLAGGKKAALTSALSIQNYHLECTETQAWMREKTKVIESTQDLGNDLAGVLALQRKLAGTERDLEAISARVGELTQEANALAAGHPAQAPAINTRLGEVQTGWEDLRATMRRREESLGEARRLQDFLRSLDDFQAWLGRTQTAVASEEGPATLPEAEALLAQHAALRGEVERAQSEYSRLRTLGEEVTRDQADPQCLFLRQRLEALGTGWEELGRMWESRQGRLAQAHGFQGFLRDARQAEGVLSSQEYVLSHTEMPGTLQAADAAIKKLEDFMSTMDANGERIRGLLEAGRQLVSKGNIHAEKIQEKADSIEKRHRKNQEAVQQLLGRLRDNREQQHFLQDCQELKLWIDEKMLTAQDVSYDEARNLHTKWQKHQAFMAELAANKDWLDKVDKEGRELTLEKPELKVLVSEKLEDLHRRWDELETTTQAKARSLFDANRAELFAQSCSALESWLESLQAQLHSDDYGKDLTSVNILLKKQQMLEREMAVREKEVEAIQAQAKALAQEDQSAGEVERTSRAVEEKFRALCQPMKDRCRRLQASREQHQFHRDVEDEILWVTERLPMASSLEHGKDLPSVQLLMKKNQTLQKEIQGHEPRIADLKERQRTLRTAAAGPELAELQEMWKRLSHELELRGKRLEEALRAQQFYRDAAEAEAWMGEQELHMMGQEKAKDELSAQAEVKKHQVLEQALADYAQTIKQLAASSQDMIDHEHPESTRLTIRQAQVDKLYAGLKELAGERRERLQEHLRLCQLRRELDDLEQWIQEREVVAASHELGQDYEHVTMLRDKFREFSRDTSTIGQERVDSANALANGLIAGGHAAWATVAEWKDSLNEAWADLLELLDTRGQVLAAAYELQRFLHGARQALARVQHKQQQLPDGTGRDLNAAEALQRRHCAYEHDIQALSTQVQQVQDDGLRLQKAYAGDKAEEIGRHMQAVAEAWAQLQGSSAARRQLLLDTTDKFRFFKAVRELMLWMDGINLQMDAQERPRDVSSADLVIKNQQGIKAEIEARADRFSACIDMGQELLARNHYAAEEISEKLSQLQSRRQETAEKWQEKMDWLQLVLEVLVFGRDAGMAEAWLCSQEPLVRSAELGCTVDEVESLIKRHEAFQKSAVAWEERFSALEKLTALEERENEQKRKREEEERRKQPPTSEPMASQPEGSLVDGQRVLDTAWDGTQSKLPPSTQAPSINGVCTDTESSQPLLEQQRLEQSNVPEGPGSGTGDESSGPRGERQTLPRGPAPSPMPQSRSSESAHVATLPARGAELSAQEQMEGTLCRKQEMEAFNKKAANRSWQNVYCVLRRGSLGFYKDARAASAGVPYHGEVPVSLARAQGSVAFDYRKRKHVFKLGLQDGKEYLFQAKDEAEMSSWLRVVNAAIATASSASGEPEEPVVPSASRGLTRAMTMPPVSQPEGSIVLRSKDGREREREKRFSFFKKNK
Description: (§1) Immunoprecipitation from cerebellum lysate. Sprague-Dawley (SD) rat cerebellum was dissected, washed with 50 mM Tris-HCl (pH 7.5), 2 mM EDTA and 0.5 mM DTT, and homogenized on ice in buffer containing 20 mM Tris-HCl (pH 7.5), 10% sucrose, 1 mM EDTA, 0.1 mM PMSF, 0.3 mM aprotinin, 1 mM benamidine, 10 mg/ml leupeptine and 10 mg/ml pepstatine. Protein concentration was measured and adjusted to 2–3 mg/ml, and the homogenate was mixed in a 1:1 ratio with the solubilization buffer (homogenization buffer plus 2% Triton X-100). After 2 h, the lysate was spun at 10,000 g for 10 min. For each immunoprecipitation, […] of the Triton-lysate was incubated overnight at 4° C. with 5 μg of the anti-amino-terminal EAAT4 antibody. Immune complexes were precipitated with protein A Sepharose (Pharmacia), washed three times with 10 mM Tris-HCl (pH 7.5) and 5 mM EDTA, eluted with 3×SDS loading buffer, and processed for western blot analysis. The filters were probed with affinity purified rabbit antibodies against GTRAP4-41 and GTRAP4-48.
(§2) The GTRAP4-41 and GTRAP4-48 interaction with EAAT4 was then studied in vivo using solubilized brain preparations. GTRAP4-41 and GTRAP4-48 are co-immunoprecipitated with EAAT4 from brain by antibodies directed at the amino-terminus of EAAT4 but not by antibodies directed at the carboxy-terminus. However, since the site of interaction is within the carboxy-terminus of EAAT4, it is likely that the carboxy-terminal antibodies disrupt the protein-protein interaction. […] GTRAP4-48 is also not co-immunoprecipitated from brain with antibodies directed at GTRAP4-41.

[3] = target: T3, myc-tagged full-length GTRAP4-48 (rat, UniProt Q9ES67 1-1527); assay: in vitro binding assay, bead-linked GST-EAAT4 with solubilized HEK 293T extract
T3 construct: tested from solubilized cell extract; also called myc-tagged GTRAP4-48; not shown: myc tag of the myc-tagged pRK5 vector
Description: (§3) GTRAP4-41 and 4-48 Immunoprecipitation with Fusion Proteins. Full-length EAAT4 was subcloned into the EcoR I site of the GST-fusion vector pGEX-6P-1 (Pharmacia). Synthesis of recombinant proteins in BL21 cells (Novagen) was induced by 0.1 mM isopropyl b-D-thiogalactoside for 2 hrs at 30° C. and prepared as a crude bacterial lysate by mild sonication in ice-cold 1 C PBS and solubilization in 1% Triton X-100. Cell debris was removed by centrifugation at 7,000 g and the cleared bacterial lysate applied to glutathione-Sepharose-4B (Pharmacia). […] The cellular lysate was incubated with GST or GST-EAAT4 immobilized on glutathione-Sepharose-4B, and washed to remove non-specifically bound proteins. Specifically bound proteins were eluted with 3×SDS loading buffer and analyzed by immunoblotting using an anti-c-myc antibody. Bands were visualized by HRP-conjugated secondary antibodies and ECL chemiluminescence (Amersham).
(§4) The biochemical interaction between GTRAP4-41 or GTRAP4-48 and EAAT4 was confirmed using an in vitro binding assay. […] The solubilized cell extracts were then mixed with bead-linked GST-EAAT4 or GST alone and the bound proteins were eluted. GTRAP4-41 and GTRAP4-48 were specifically retained by the GST-EAAT4 fusion protein, but not by GST alone.

[4] = target: T4, myc-tagged full-length GTRAP4-41 (rat, UniProt Q9QWN8 2-2388); assay: as above
T4 construct: tested from solubilized cell extract; also called myc-tagged GTRAP4-41; not shown: myc tag of the myc-tagged pRK5 vector
T4 sequence (Q9QWN8 other isoform, or with tags, fused parts or gaps): as the sequence (Q9QWN8 other isoform, or with tags, fused parts or gaps limits assumed) above
Description: as §3, §4

[5] = target: B1; assay: co-immunoprecipitation from solubilized rat brain
Description: as §1, §2

Na+-dependent glutamate transport in HEK-rEAAT4 cells [1]	binding result [2]	binding result [3]	binding result [4]	binding result [5]	Binder
4 fold	no binding				B1
		binds	binds		GST-EAAT4 fusion protein (full-length EAAT4 in pGEX-6P-1) (other, UniProt O35921 1-561, looked up, mature; Made in BL21 cells, immobilized on glutathione-Sepharose-4B; not shown: glutathione S-transferase of vector pGEX-6P-1 (Pharmacia)) MSSHGNSLFLRESGAGGGCLQGLQDSLQQRALRTRLRLQTMTREHVRRFLRRNAFILLTVSAVIIGVSLAFALRPYQLTYRQIKYFSFPGELLMRMLQMLVLPLIVSSRVTGMASLDNKATGRMGMRAAVYYMVTTVIAVFIGILMVTIIHPGKGSKEGLHREGRIETVPTADAFMDLVRNMFPPNLVEACFKQFKTQYSTRVVTRTIVRTDNGSELGASISPPSSAENETSILENVTRALGTLQEVISFEETVPVPGSANGINALGLVVFSVAFGLVIGGMKHKGRVLRDFFDSLNEAIMRLVGIIIWYAPVGILFLIAGKILEMEDMAVLGGQLGMYTLTVIVGLFLHAGGVLPLIYFLVTHRNPFPFIGGILQALITAMGTSSSSATLPITFRCLEEGLGVDRRITRFVLPVGATVNMDGTALYEALAAIFIAQVNNYELNLGQITTISITATAASVGAAGIPQAGLVTMVIVLTSVGLPTEDITLIIAVDWFLDRLRTMTNVLGDSIGAAVIEHLSQRELELQEAELTLPSLGKPYKSLMAQAKGASRGRGGNESVM
	no binding			no binding	EAAC1, full-length glutamate transporter (other, rat, UniProt P51907 1-523, looked up, whole, on cells; Used for native EAAC1 of rat brain and for EAAC1 expressed in HEK293, COS-7 and C6 glioma cells) MGKPTSSGCDWRRFLRNHWLLLSTVAAVVLGIVVGVLVRGHSELSNLDKFYFAFPGEILMRMLKLVILPLIISSMITGVAALDSNVSGKIGLRAVVYYFSTTVIAVILGIVLVVSIKPGVTQKVNEINRTGKTPEVSTVDAMLDLIRNMFPENLVQACFQQYKTKREEVKPASDPGGNQTEVSVTTAMTTMSENKTKEYKIVGLYSDGINVLGLIIFCLVFGLVIGKMGEKGQILVDFFNALSDATMKIVQIIMCYMPIGILFLIAGKIIEVEDWEIFRKLGLYMATVLSGLAIHSLVVLPLIYFIVVRKNPFRFALGMAQALLTALMISSSSATLPVTFRCAEEKNHVDKRITRFVLPVGATINMDGTALYEAVAAVFIAQLNGMDLSIGQIITISITATAASIGAAGVPQAGLVTMVIVLSAVGLPAEDVTLIIAVDWLLDRFRTMVNVLGDAFGTGIVEKLSKKELEQVDVSSEVNIVNPFALEPTILDNEDSDTKKSYVNGGFSVDKSDTISFTQTSQF
	no binding			no binding	GLT-1 glutamate transporter (other, rat, UniProt P31596 1-573, looked up, whole, on cells; Native protein in solubilized rat brain) MASTEGANNMPKQVEVRMHDSHLSSEEPKHRNLGMRMCDKLGKNLLLSLTVFGVILGAVCGGLLRLAAPIHPDVVMLIAFPGDILMRMLKMLILPLIISSLITGLSGLDAKASGRLGTRAMVYYMSTTIIAAVLGVILVLAIHPGNPKLKKQLGPGKKNDEVSSLDAFLDLIRNLFPENLVQACFQQIQTVTKKVLVAPPSEEANTTKAVISLLNETMNEAPEETKIVIKKGLEFKDGMNVLGLIGFFIAFGIAMGKMGEQAKLMVEFFNILNEIVMKLVIMIMWYSPLGIACLICGKIIAIKDLEVVARQLGMYMITVIVGLIIHGGIFLPLIYFVVTRKNPFSFFAGIFQAWITALGTASSAGTLPVTFRCLEDNLGIDKRVTRFVLPVGATINMDGTALYEAVAAIFIAQMNGVILDGGQIVTVSLTATLASIGAASIPSAGLVTMLLILTAVGLPTEDISLLVAVDWLLDRMRTSVNVVGDSFGAGIVYHLSKSELDTIDSQHRMHEDIEMTKTQSVYDDTKNHRESNSNQCVYAAHNSVVIDECKVTLAANGKSADCSVEEEPWKREK
	no binding			no binding	GLAST glutamate transporter (other, rat, UniProt P24942 1-543, looked up, whole, on cells; Native protein in solubilized rat brain) MTKSNGEEPRMGSRMERFQQGVRKRTLLAKKKVQNITKEDVKSYLFRNAFVLLTVSAVIVGTILGFALRPYKMSYREVKYFSFPGELLMRMLQMLVLPLIISSLVTGMAALDSKASGKMGMRAVVYYMTTTIIAVVIGIIIVIIIHPGKGTKENMYREGKIVQVTAADAFLDLIRNMFPPNLVEACFKQFKTSYEKRSFKVPIQANETLLGAVINNVSEAMETLTRIREEMVPVPGSVNGVNALGLVVFSMCFGFVIGNMKEQGQALREFFDSLNEAIMRLVAVIMWYAPLGILFLIAGKILEMEDMGVIGGQLAMYTVTVIVGLLIHAVIVLPLLYFLVTRKNPWVFIGGLLQALITALGTSSSSATLPITFKCLEENNGVDKRITRFVLPVGATINMDGTALYEALAAIFIAQVNNFDLNFGQIITISITATAASIGAAGIPQAGLVTMVIVLTSVGLPTDDITLIIAVDWFLDRLRTTTNVLGDSLGAGIVEHLSRHELKNRDVEMGNSVIEENEMKKPYQLIAQDNEPEKPVADSETKM
